Measured values: article PMC3021515

Experiments:
[1] = target: DmI1529K/R1530Y (Drosophila) (UniProt P35500)
DmNav1 (Drosophila) [2] = target: DmNav1 (Drosophila) (UniProt P35500)
DmE1523N (Drosophila) [3] = target: DmE1523N (Drosophila) (UniProt P35500)
DmM5 (Drosophila) = DmM5 (Drosophila) (UniProt P35500)
DmR1530Y (Drosophila) = DmR1530Y (Drosophila) (UniProt P35500)
DmG904N (Drosophila) [4] = target: DmG904N (Drosophila) (UniProt P35500)
L(Dm)Nav1.2 (rat) = L(Dm)Nav1.2 (rat) (UniProt P04775)
[5] = target: L(1.2)DmNav1 (Drosophila) (UniProt P35500)
DmL899C (Drosophila) [6] = target: DmL899C (Drosophila) (UniProt P35500)
rNav1.2 (rat) [7] = target: rNav1.2 (rat) (UniProt P04775)
DmD1525E (Drosophila) [8] = target: DmD1525E (Drosophila) (UniProt P35500)
DmE896C (Drosophila) [9] = target: DmE896C (Drosophila) (UniProt P35500)
DmI1529K (Drosophila) [10] = target: DmI1529K (Drosophila) (UniProt P35500)
DmK1526L (Drosophila) = DmK1526L (Drosophila) (UniProt P35500)
DmI1534L (Drosophila) = DmI1534L (Drosophila) (UniProt P35500)
DmD838C (Drosophila) [11] = target: DmD838C (Drosophila) (UniProt P35500)
rNav1.3 (rat) [12] = target: rNav1.3 (rat) (UniProt P08104)
DmT1532D (Drosophila) = DmT1532D (Drosophila) (UniProt P35500)
mNav1.6 (mouse) [13] = target: mNav1.6 (mouse) (UniProt Q9WTU3)
DmI1529K (Drosophila) [14] = target: DmI1529K (Drosophila) (UniProt P35500); remark: listed apart in the source
DmNav1 (Drosophila) [15] = target: DmNav1 (Drosophila) (UniProt P35500); remark: listed apart in the source
DmE1523N (Drosophila) [16] = target: DmE1523N (Drosophila) (UniProt P35500); remark: listed apart in the source
DmG904N (Drosophila) [17] = target: DmG904N (Drosophila) (UniProt P35500); remark: listed apart in the source
DmL899C (Drosophila) [18] = target: DmL899C (Drosophila) (UniProt P35500); remark: listed apart in the source
rNav1.2 (rat) [19] = target: rNav1.2 (rat) (UniProt P04775); remark: listed apart in the source
DmD1525E (Drosophila) [20] = target: DmD1525E (Drosophila) (UniProt P35500); remark: listed apart in the source
DmE896C (Drosophila) [21] = target: DmE896C (Drosophila) (UniProt P35500); remark: listed apart in the source
DmI1529K (Drosophila) [22] = target: DmI1529K (Drosophila) (UniProt P35500); remark: listed apart in the source
DmD838C (Drosophila) [23] = target: DmD838C (Drosophila) (UniProt P35500); remark: listed apart in the source
rNav1.3 (rat) [24] = target: rNav1.3 (rat) (UniProt P08104); remark: listed apart in the source
mNav1.6 (mouse) [25] = target: mNav1.6 (mouse) (UniProt Q9WTU3); remark: listed apart in the source
rNav1.3 (rat) [26] = target: rNav1.3 (rat) (UniProt P08104); remark: listed apart in the source

BmK IT2 (natural protein)
shift of the half-maximal activation voltage (ΔV1/2) by 2 µM BmK IT2 with prepulse, two-electrode voltage clamp, Xenopus oocytes [1]: -5.06 mV | shift of the half-maximal activation voltage (ΔV1/2) by 2 µM BmK IT2 with prepulse, two-electrode voltage clamp, Xenopus oocytes (DmNav1 (Drosophila) [2]): -11.9 mV | shift of the half-maximal activation voltage (ΔV1/2) by 2 µM BmK IT2 with prepulse, two-electrode voltage clamp, Xenopus oocytes (DmE1523N (Drosophila) [3]): -12.1 mV | shift of the half-maximal activation voltage (ΔV1/2) by 2 µM BmK IT2 with prepulse, two-electrode voltage clamp, Xenopus oocytes (DmM5 (Drosophila)): -6.56 mV | shift of the half-maximal activation voltage (ΔV1/2) by 2 µM BmK IT2 with prepulse, two-electrode voltage clamp, Xenopus oocytes (DmR1530Y (Drosophila)): -5.11 mV | shift of the half-maximal activation voltage (ΔV1/2) by 2 µM BmK IT2 with prepulse, two-electrode voltage clamp, Xenopus oocytes (DmG904N (Drosophila) [4]): 0.66 mV | shift of the half-maximal activation voltage (ΔV1/2) by 2 µM BmK IT2 with prepulse, two-electrode voltage clamp, Xenopus oocytes (L(Dm)Nav1.2 (rat)): -5.05 mV | shift of the half-maximal activation voltage (ΔV1/2) by 2 µM BmK IT2 with prepulse, two-electrode voltage clamp, Xenopus oocytes [5]: -12.5 mV | shift of the half-maximal activation voltage (ΔV1/2) by 2 µM BmK IT2 with prepulse, two-electrode voltage clamp, Xenopus oocytes (DmL899C (Drosophila) [6]): -1.39 mV | shift of the half-maximal activation voltage (ΔV1/2) by 2 µM BmK IT2 with prepulse, two-electrode voltage clamp, Xenopus oocytes (rNav1.2 (rat) [7]): 1.14 mV | shift of the half-maximal activation voltage (ΔV1/2) by 2 µM BmK IT2 with prepulse, two-electrode voltage clamp, Xenopus oocytes (DmD1525E (Drosophila) [8]): -9.73 mV | shift of the half-maximal activation voltage (ΔV1/2) by 2 µM BmK IT2 with prepulse, two-electrode voltage clamp, Xenopus oocytes (DmE896C (Drosophila) [9]): -1.86 mV | shift of the half-maximal activation voltage (ΔV1/2) by 2 µM BmK IT2 with prepulse, two-electrode voltage clamp, Xenopus oocytes (DmI1529K (Drosophila) [10]): 0.12 mV | shift of the half-maximal activation voltage (ΔV1/2) by 2 µM BmK IT2 with prepulse, two-electrode voltage clamp, Xenopus oocytes (DmK1526L (Drosophila)): -12.3 mV | shift of the half-maximal activation voltage (ΔV1/2) by 2 µM BmK IT2 with prepulse, two-electrode voltage clamp, Xenopus oocytes (DmI1534L (Drosophila)): -7.99 mV | shift of the half-maximal activation voltage (ΔV1/2) by 2 µM BmK IT2 with prepulse, two-electrode voltage clamp, Xenopus oocytes (DmD838C (Drosophila) [11]): -10.4 mV | shift of the half-maximal activation voltage (ΔV1/2) by 2 µM BmK IT2 with prepulse, two-electrode voltage clamp, Xenopus oocytes (rNav1.3 (rat) [12]): 0.9 mV | shift of the half-maximal activation voltage (ΔV1/2) by 2 µM BmK IT2 with prepulse, two-electrode voltage clamp, Xenopus oocytes (DmT1532D (Drosophila)): -9.44 mV | shift of the half-maximal activation voltage (ΔV1/2) by 2 µM BmK IT2 with prepulse, two-electrode voltage clamp, Xenopus oocytes (mNav1.6 (mouse) [13]): 0.32 mV | EC50 of BmK IT2 from the currents it induces at −40 mV (activation threshold), two-electrode voltage clamp, Xenopus oocytes (unit as printed in the text; the table gives µM) (DmI1529K (Drosophila) [14]): 0.0156 µM | EC50 of BmK IT2 from the currents it induces at −40 mV (activation threshold), two-electrode voltage clamp, Xenopus oocytes (DmNav1 (Drosophila) [15]): 2.9 µM | EC50 of BmK IT2 from the currents it induces at −40 mV (activation threshold), two-electrode voltage clamp, Xenopus oocytes (DmE1523N (Drosophila) [16]): 2.4 µM | EC50 of BmK IT2 from the currents it induces at −40 mV (activation threshold), two-electrode voltage clamp, Xenopus oocytes (DmG904N (Drosophila) [17]): > 50 µM | EC50 of BmK IT2 from the currents it induces at −40 mV (activation threshold), two-electrode voltage clamp, Xenopus oocytes (DmL899C (Drosophila) [18]): > 35 µM | EC50 of BmK IT2 from the currents it induces at −40 mV (activation threshold), two-electrode voltage clamp, Xenopus oocytes (rNav1.2 (rat) [19]): > 50 µM | EC50 of BmK IT2 from the currents it induces at −40 mV (activation threshold), two-electrode voltage clamp, Xenopus oocytes (DmD1525E (Drosophila) [20]): 3.3 µM | EC50 of BmK IT2 from the currents it induces at −40 mV (activation threshold), two-electrode voltage clamp, Xenopus oocytes (DmE896C (Drosophila) [21]): > 35 µM | EC50 of BmK IT2 from the currents it induces at −40 mV (activation threshold), two-electrode voltage clamp, Xenopus oocytes (DmI1529K (Drosophila) [22]): 15.6 µM | EC50 of BmK IT2 from the currents it induces at −40 mV (activation threshold), two-electrode voltage clamp, Xenopus oocytes (DmD838C (Drosophila) [23]): 3.6 µM | EC50 of BmK IT2 from the currents it induces at −40 mV (activation threshold), two-electrode voltage clamp, Xenopus oocytes (rNav1.3 (rat) [24]): > 20 µM | EC50 of BmK IT2 from the currents it induces at −40 mV (activation threshold), two-electrode voltage clamp, Xenopus oocytes (mNav1.6 (mouse) [25]): > 50 µM | shift of the half-maximal activation voltage (ΔV1/2) by 50 µM BmK IT2, two-electrode voltage clamp, Xenopus oocytes (data not shown) (rNav1.3 (rat) [26]): -4.84 mV
